# Assay results taken from US20230340128A1 (Xencor, published 2023).
# Like-named read-outs stand apart in the source and are kept apart here.
# Experiments:
# [1] = biological target: T1, MSLN on OVCAR8 cells (~90K MSLN antigens/cell) (UniProt Q13421 296-598); experiment: binding to OVCAR8 cells, MFI APC against mAb concentration
# [2] = biological target: T2, human mesothelin (MSLN) (human, UniProt Q13421 296-580, limits assumed); experiment: BLI (Octet), bsAb in 1+1 Fab-scFv-Fc format
# T2 construct: Antigen of the Octet KD values
# [3] = biological target: T2, human mesothelin (MSLN); experiment: BLI (Octet), multiple concentrations, bsAb in 1+1 Fab-scFv-Fc format; lower table, column 'human MSLN (M)'
# [4] = biological target: T2, human mesothelin (MSLN); experiment: KD quoted in the FIG. 25 legend; Octet (BLI) per FIGS. 20-21
# [5] = biological target: T1, MSLN on OVCAR8 cells (~90K MSLN …); experiment: binding to OVCAR8 cells, MFI APC against mAb concentration; remark: listed apart in the source
# [6] = biological target: T1, MSLN on OVCAR8 cells (~90K MSLN …); experiment: as above; remark: listed apart in the source
Binder,EC50 (read off the curve) [1] [µg/mL],Kd [2] [nM],Response [2],koff [2] [s⁻¹],kon [2] [M⁻¹ s⁻¹],Kd [3] [nM],Kd [4] [nM],EC50 (read off the curve) [5] [µg/mL],EC50 (read off the curve) [6] [µg/mL]
XENP32561 (bispecific antibody) chain 1: QVQLVQSGAEVKKPGASVKVSCKASGYTFTSYWMHWVRQAPGQGLEWMGMIHPNSDNTIYYEKFQGRVTMTVDKSISTAYMELSRLRSDDTAVYYCAIIITPVVPKFDYWGQGTLVTVSSASTKGPSVFPLAPSSKSTSGGTAALGCLVKDYFPEPVTVSWNSGALTSGVHTFPAVLQSSGLYSLSSVVTVPSSSLGTQTYICNVNHKPSDTKVDKKVEPKSCDKTHTCPPCPAPPVAGPSVFLFPPKPKDTLMISRTPEVTCVVVDVKHEDPEVKFNWYVDGVEVHNAKTKPREEEYNSTYRVVSVLTVLHQDWLNGKEYKCKVSNKALPAPIEKTISKAKGQPREPQVYTLPPSREEMTKNQVSLTCDVSGFYPSDIAVEWESDGQPENNYKTTPPVLDSDGSFFLYSKLTVDKSRWEQGDVFSCSVMHEALHNHYTQKSLSLSPGK chain 2: not shown chain 3: DIVMTQSPDSLAVSLGERATINCKASHSVGTSVAWYQQKPGQSPKLLIYWASTRHTGVPDRFTGSGSGTDFTLTISSLQAEDVAVYFCQQYSSYPLTFGAGTKLEIKRTVAAPSVFIFPPSDEQLKSGTASVVCLLNNFYPREAKVQWKVDNALQSGNSQESVTEQDSKDSTYSLSSTLTLSKADYEKHKVYACEVTHQGLSSPVTKSFNRGEC,~0.2,0.355,1.08,0.000215,606000,0.45,–,–,–
XENP32748 (bispecific antibody) chain 1: QVQLVQSGAEVKKPGASVKVSCKASGYTFTSYWMHWVRQAPGQGLEWMGMIHPNSDNTIYYEKFQGRVTMTVDKSISTAYMELSRLRSDDTAVYYCAIIITPVVPKFDYWGQGTLVTVSSASTKGPSVFPLAPSSKSTSGGTAALGCLVKDYFPEPVTVSWNSGALTSGVHTFPAVLQSSGLYSLSSVVTVPSSSLGTQTYICNVNHKPSDTKVDKKVEPKSCDKTHTCPPCPAPPVAGPSVFLFPPKPKDTLMISRTPEVTCVVVDVKHEDPEVKFNWYVDGVEVHNAKTKPREEEYNSTYRVVSVLTVLHQDWLNGKEYKCKVSNKALPAPIEKTISKAKGQPREPQVYTLPPSREEMTKNQVSLTCDVSGFYPSDIAVEWESDGQPENNYKTTPPVLDSDGSFFLYSKLTVDKSRWEQGDVFSCSVMHEALHNHYTQKSLSLSPGK chain 2: QVQLVQSGAEVKKPGASVKVSCKASGYTFTSYWMHWVRQAPGQGLEWMGMIHPNSDNTIYYEKFQGRVTMTVDKSISTAYMELSRLRSDDTAVYYCAIIITPVVPKFDYWGQGTLVTVSSASTKGPSVFPLAPSSKSTSGGTAALGCLVKDYFPEPVTVSWNSGALTSGVHTFPAVLQSSGLYSLSSVVTVPSSSLGTQTYICNVNHKPSNTKVDKKVEPKSCGGGGSGGGGSQAVVTQEPSLTVSPGGTVTLTCGSSTGAVTTSNYANWVQQKPGKSPRGLIGGTNKRAPGVPARFSGSLLGGKAALTISGAQPEDEADYYCALWYSNHWVFGGGTKLTVLGKPGSGKPGSGKPGSGKPGSEVQLVESGGGLVQPGGSLRLSCAASGFTFSTYAMNWVRQAPGKGLEWVGRIRSKANNYATYYADSVKGRFTISRDDSKNTLYLQMNSLRAEDTAVYYCVRHGNFGDSYVSWFAYWGQGTLVTVSSGGGGSGGGGSKTHTCPPCPAPPVAGPSVFLFPPKPKDTLMISRTPEVTCVVVDVKHEDPEVKFNWYVDGVEVHNAKTKPREEQYNSTYRVVSVLTVLHQDWLNGKEYKCKVSNKALPAPIEKTISKAKGQPREPQVYTLPPSREQMTKNQVKLTCLVKGFYPSDIAVEWESNGQPENNYKTTPPVLDSDGSFFLYSKLTVDKSRWQQGNVFSCSVMHEALHNHYTQKSLSLSPGK chain 3: DIVMTQSPDSLAVSLGERATINCKASHDVLTSVAWYQQKPGQSPKLLIYWASTRHTGVPDRFTGSGSGTDFTLTISSLQAEDVAVYFCQQYSSYPLTFGAGTKLEIKRTVAAPSVFIFPPSDEQLKSGTASVVCLLNNFYPREAKVQWKVDNALQSGNSQESVTEQDSKDSTYSLSSTLTLSKADYEKHKVYACEVTHQGLSSPVTKSFNRGEC,–,–,–,–,–,–,0.74,–,~0.04
XENP32562 (bispecific antibody) chain 1: QVQLVQSGAEVKKPGASVKVSCKASGYTFTSYWMHWVRQAPGQGLEWMGMIHPNSDNTIYYEKFQGRVTMTVDKSISTAYMELSRLRSDDTAVYYCAIIITPVVPKFDYWGQGTLVTVSSASTKGPSVFPLAPSSKSTSGGTAALGCLVKDYFPEPVTVSWNSGALTSGVHTFPAVLQSSGLYSLSSVVTVPSSSLGTQTYICNVNHKPSDTKVDKKVEPKSCDKTHTCPPCPAPPVAGPSVFLFPPKPKDTLMISRTPEVTCVVVDVKHEDPEVKFNWYVDGVEVHNAKTKPREEEYNSTYRVVSVLTVLHQDWLNGKEYKCKVSNKALPAPIEKTISKAKGQPREPQVYTLPPSREEMTKNQVSLTCDVSGFYPSDIAVEWESDGQPENNYKTTPPVLDSDGSFFLYSKLTVDKSRWEQGDVFSCSVMHEALHNHYTQKSLSLSPGK chain 2: not shown chain 3: DIVMTQSPDSLAVSLGERATINCKASHDVLTSVAWYQQKPGQSPKLLIYWASTRHTGVPDRFTGSGSGTDFTLTISSLQAEDVAVYFCQQYSSYPLTFGAGTKLEIKRTVAAPSVFIFPPSDEQLKSGTASVVCLLNNFYPREAKVQWKVDNALQSGNSQESVTEQDSKDSTYSLSSTLTLSKADYEKHKVYACEVTHQGLSSPVTKSFNRGEC,–,0.628,1.01,0.000409,651000,0.74,–,–,~0.2

# More lines, now with the values ahead:
EC50 (read off the curve) [1] [µg/mL],Kd [2] [nM],Response [2],koff [2] [s⁻¹],kon [2] [M⁻¹ s⁻¹],Kd [3] [nM],Kd [4] [nM],EC50 (read off the curve) [5] [µg/mL],EC50 (read off the curve) [6] [µg/mL],Binder
–,–,–,–,–,–,3.9,~0.06,–,XENP32852 (bispecific antibody) chain 1: QVQLVQSGAEVKKPGASVKVSCKASGYTFTSYWMHWVRQAPGQGLEWMGMIHPNSDNTIYYEKFQGRVTMTVDKSISTAYMELSRLRSDDTAVYYCAIIITPVVPKFDYWGQGTLVTVSSASTKGPSVFPLAPSSKSTSGGTAALGCLVKDYFPEPVTVSWNSGALTSGVHTFPAVLQSSGLYSLSSVVTVPSSSLGTQTYICNVNHKPSDTKVDKKVEPKSCDKTHTCPPCPAPPVAGPSVFLFPPKPKDTLMISRTPEVTCVVVDVKHEDPEVKFNWYVDGVEVHNAKTKPREEEYNSTYRVVSVLTVLHQDWLNGKEYKCKVSNKALPAPIEKTISKAKGQPREPQVYTLPPSREEMTKNQVSLTCDVSGFYPSDIAVEWESDGQPENNYKTTPPVLDSDGSFFLYSKLTVDKSRWEQGDVFSCSVMHEALHNHYTQKSLSLSPGK chain 2: QVQLVQSGAEVKKPGASVKVSCKASGYTFTSYWMHWVRQAPGQGLEWMGMIHPNSDNTIYYEKFQGRVTMTVDKSISTAYMELSRLRSDDTAVYYCAIIITPVVPKFDYWGQGTLVTVSSASTKGPSVFPLAPSSKSTSGGTAALGCLVKDYFPEPVTVSWNSGALTSGVHTFPAVLQSSGLYSLSSVVTVPSSSLGTQTYICNVNHKPSNTKVDKKVEPKSCGGGGSGGGGSQAVVTQEPSLTVSPGGTVTLTCGSSTGAVTTSNYANWVQQKPGKSPRGLIGGTNKRAPGVPARFSGSLLGGKAALTISGAQPEDEADYYCALWYSNHWVFGGGTKLTVLGKPGSGKPGSGKPGSGKPGSEVQLVESGGGLVQPGGSLRLSCAASGFTFSTYAMNWVRQAPGKGLEWVGRIRSKANNYATYYADSVKGRFTISRDDSKNTLYLQMNSLRAEDTAVYYCVRHGNFGDSYVSWFAYWGQGTLVTVSSGGGGSGGGGSKTHTCPPCPAPPVAGPSVFLFPPKPKDTLMISRTPEVTCVVVDVKHEDPEVKFNWYVDGVEVHNAKTKPREEQYNSTYRVVSVLTVLHQDWLNGKEYKCKVSNKALPAPIEKTISKAKGQPREPQVYTLPPSREQMTKNQVKLTCLVKGFYPSDIAVEWESNGQPENNYKTTPPVLDSDGSFFLYSKLTVDKSRWQQGNVFSCSVMHEALHNHYTQKSLSLSPGK chain 3: DIVMTQSPDSLAVSLGERATINCKASHDVGTSVAWYQQKPGQSPKLLIYWASTRHTGVPDRFTGSGSGTDFTLTISSLQAEDVAVYFCQQYYSYPLTFGAGTKLEIKRTVAAPSVFIFPPSDEQLKSGTASVVCLLNNFYPREAKVQWKVDNALQSGNSQESVTEQDSKDSTYSLSSTLTLSKADYEKHKVYACEVTHQGLSSPVTKSFNRGEC
–,–,–,–,–,–,3.9,~0.06,–,XENP32853 (bispecific antibody) chain 1: QVQLVQSGAEVKKPGASVKVSCKASGYTFTSYWMHWVRQAPGQGLEWMGMIHPNSDNTIYYEKFQGRVTMTVDKSISTAYMELSRLRSDDTAVYYCAIIITPVVPKFDYWGQGTLVTVSSASTKGPSVFPLAPSSKSTSGGTAALGCLVKDYFPEPVTVSWNSGALTSGVHTFPAVLQSSGLYSLSSVVTVPSSSLGTQTYICNVNHKPSDTKVDKKVEPKSCDKTHTCPPCPAPPVAGPSVFLFPPKPKDTLMISRTPEVTCVVVDVKHEDPEVKFNWYVDGVEVHNAKTKPREEEYNSTYRVVSVLTVLHQDWLNGKEYKCKVSNKALPAPIEKTISKAKGQPREPQVYTLPPSREEMTKNQVSLTCDVSGFYPSDIAVEWESDGQPENNYKTTPPVLDSDGSFFLYSKLTVDKSRWEQGDVFSCSVMHEALHNHYTQKSLSLSPGK chain 2: QVQLVQSGAEVKKPGASVKVSCKASGYTFTSYWMHWVRQAPGQGLEWMGMIHPNSDNTIYYEKFQGRVTMTVDKSISTAYMELSRLRSDDTAVYYCAIIITPVVPKFDYWGQGTLVTVSSASTKGPSVFPLAPSSKSTSGGTAALGCLVKDYFPEPVTVSWNSGALTSGVHTFPAVLQSSGLYSLSSVVTVPSSSLGTQTYICNVNHKPSNTKVDKKVEPKSCGGGGSGGGGSQAVVTQEPSLTVSPGGTVTLTCGSSTGAVTTSNYANWVQQKPGKSPRGLIGGTNKRAPGVPARFSGSLLGGKAALTISGAQPEDEADYYCALWYSNHWVFGGGTKLTVLGKPGSGKPGSGKPGSGKPGSEVQLVESGGGLVQPGGSLRLSCAASGFTFSTYAMNWVRQAPGKGLEWVGRIRSKYNNYATYYADSVKGRFTISRDDSKNTLYLQMNSLRAEDTAVYYCVRHGNFGDEYVSWFAYWGQGTLVTVSSEPKSSDKTHTCPPCPAPPVAGPSVFLFPPKPKDTLMISRTPEVTCVVVDVKHEDPEVKFNWYVDGVEVHNAKTKPREEQYNSTYRVVSVLTVLHQDWLNGKEYKCKVSNKALPAPIEKTISKAKGQPREPQVYTLPPSREQMTKNQVKLTCLVKGFYPSDIAVEWESNGQPENNYKTTPPVLDSDGSFFLYSKLTVDKSRWQQGNVFSCSVMHEALHNHYTQKSLSLSPGK chain 3: DIVMTQSPDSLAVSLGERATINCKASHDVGTSVAWYQQKPGQSPKLLIYWASTRHTGVPDRFTGSGSGTDFTLTISSLQAEDVAVYFCQQYYSYPLTFGAGTKLEIKRTVAAPSVFIFPPSDEQLKSGTASVVCLLNNFYPREAKVQWKVDNALQSGNSQESVTEQDSKDSTYSLSSTLTLSKADYEKHKVYACEVTHQGLSSPVTKSFNRGEC
